Laboratory results: IntAct's records for PubMed 25487150

B1: Protein phosphatase PP2A regulatory subunit B (Schizosaccharomyces pombe (strain ATCC 38366 / 972)), Q12702 (parent)
chain: MDDIEDSLDQWKFAQCFGDKGDVEDITEADIISAVEFDHTGDYLATGDKGGRVVLFERNHSKKGCEYKFFTEFQSHEPEFDYLKSLEIEEKINKIRWCKRTNRAHFLLSTNDKTIKLWKLYEKNLKVVAENNLSDSFHSPMQGPLTTPSQLRLPRLNHHDMIIAAYPRRVYANAHAYHINSISVNSDAETYISADDLRINLWNLSISDHSFNIVDIKPENMEELTEVITSAEFHPINCNHLMYSSSKGNIKLLDLRQSALCDNPCKLFEDQEDQDSKSFFSEIISSISDVKFSQNGRYILSRDYLTLKIWDVNMEKAPVKTIPLHDVLRSKLCDLYENDCIFDKFECTFSGDDKHVLSGSYSNNFGIYPTDSSLPGDRGQIVLQADKAAFRARKSAANNVPKLNAVKNNDWRSQPQAAMGSASVGLDPDNLDYNKKILHASWHPFEDSVAIAATNNLFVFSKL
B2: Spindle pole body-associated protein cut12 (Schizosaccharomyces pombe (strain ATCC 38366 / 972)), O59755 (parent)
chain: MSETLNTPPTYAWVLKAFSSKLAGTVTKPVTKMSSYIEDAESDAELPQDAKEDLRPTETLTPLKSKAAQNGILKTPGTLQIKKTVNFKDISKDAATWNRPTKNNFLFTRLDDENPLMGHEEFKSPLLQSTPKPNINNPDNENKSKHDEFDNRYNININESYKNETKSNQRLGEDVPSKKKYPHSMDAEISKFKWDSNNNNDWSSLMKDCFRDVVNNNRKMKEIIKDVMIDTSQAFPSESLDEPDYTINLDAPRSSSGKYWKQKFSMLDSAHSDLELELTSIRERLESLILEKQEEINFWKQRCRALETEKIHNHQGQQSKYKGKEFVGNRFSQMRELYTAKPSPITTKVVSRPSQSDVREPQEQVPSKNLHRGADMSHLAAQMLTHSSKKSHTTNLIPSEGIISSTPISAASKVRMNLMQSNQTPTPAPFSIAAKKSHLPSKLSFPQDGGSLSSATTLQQLPKARVTPNVLSSLSSNLGKTNPTSVYQSKANVTTSADVEKPQVKVATSSRVDYDLKSPNQRTANAKKRLEERRRRRKLKLQELQLNS

Variants of: B1
Details: with pp11_schpo dis2, P13681
Target sequence in this assay (P13681 whole entry): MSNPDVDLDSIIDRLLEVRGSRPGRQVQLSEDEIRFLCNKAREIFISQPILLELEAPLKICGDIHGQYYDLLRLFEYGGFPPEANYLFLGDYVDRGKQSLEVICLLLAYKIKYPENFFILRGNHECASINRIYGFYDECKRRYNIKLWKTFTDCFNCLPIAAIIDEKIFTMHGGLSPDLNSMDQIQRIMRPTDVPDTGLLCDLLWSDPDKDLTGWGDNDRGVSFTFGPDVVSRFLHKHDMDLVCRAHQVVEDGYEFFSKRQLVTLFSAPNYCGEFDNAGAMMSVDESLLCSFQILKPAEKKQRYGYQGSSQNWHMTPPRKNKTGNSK

Row | effect of a mutation on the interaction | Variant
1 | decreasing interaction strength | V54A
2 | disrupting interaction strength | R52A;V54A;F56A

Variants of: B2
Details: with pp11_schpo dis2, P13681
Target sequence in this assay (P13681 whole entry): as above

Row | effect of a mutation on the interaction | Variant
3 | disrupting interaction strength | G71V;K83A;V85A;F87A
4 | decreasing interaction strength | V85A;F87A

Second part, the variant before the results:

Row | Variant | effect of a mutation on the interaction
5 | G71V | decreasing interaction strength
6 | I72L;K74R;V85A;F87A | decreasing interaction strength
